Patent publication US20240352105A1, “COMPOSITIONS AND METHODS FOR NEUTRALIZING ANTIGENS” (PACAGEN, INC, priority 2023, published 2024)
Values joined by “and” are separate entries in the source; they are usually repeats but may differ in a detail not shown here. Equal entries are not always repeated.

Legend:
[1] = molecular target: recombinant His-tagged Can f2 (dog (Canis familiaris)) (UniProt O18874); experiment: serum ELISA, 1:64K, Alpaca 1 block
[2] = molecular target: Can f2-sumo-His (dog (Canis familiaris)) (UniProt O18874); experiment: serum ELISA, 1:64K, Alpaca 1 block
Sequence of Can f2-sumo-His (dog (Canis familiaris)) (O18874 19-180): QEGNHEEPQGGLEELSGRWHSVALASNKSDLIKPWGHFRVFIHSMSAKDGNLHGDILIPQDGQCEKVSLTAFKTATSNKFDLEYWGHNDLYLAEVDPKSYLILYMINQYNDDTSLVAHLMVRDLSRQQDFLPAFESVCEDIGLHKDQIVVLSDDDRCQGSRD

[3] = molecular target: T1, recombinant His-tagged Der p2 (dust mite, UniProt P49278 18-146); experiment: serum ELISA, 1:64K, Alpaca 1 block
T1 construct: also called Der p2-His; Der p2-HIS; not shown: His tag
T1 sequence (looked up): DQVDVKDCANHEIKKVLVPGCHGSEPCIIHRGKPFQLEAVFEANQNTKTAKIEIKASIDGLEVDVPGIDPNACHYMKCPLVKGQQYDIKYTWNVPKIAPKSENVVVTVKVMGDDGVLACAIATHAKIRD

[4] = molecular target: recombinant His-tagged Can f1 (dog (Canis familiaris)) (UniProt O18873); experiment: serum ELISA, 1:64K, Alpaca 1 block
Sequence of recombinant His-tagged Can f1 (dog (Canis familiaris)) (O18873 19-174 limits assumed): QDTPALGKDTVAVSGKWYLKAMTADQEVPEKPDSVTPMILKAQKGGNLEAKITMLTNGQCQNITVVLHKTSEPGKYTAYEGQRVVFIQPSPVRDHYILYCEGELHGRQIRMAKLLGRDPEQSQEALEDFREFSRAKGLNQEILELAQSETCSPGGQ

[5] = molecular target: recombinant His-tagged Can f2 (dog (Canis familiaris)) (UniProt O18874); experiment: serum ELISA, 1:4k, Alpaca 1 block
[6] = molecular target: recombinant His-tagged Can f2 (dog (Canis familiaris)) (UniProt O18874); experiment: serum ELISA, 1:1K, Alpaca 2 block
[7] = molecular target: Can f2-sumo-His (dog (Canis familiaris)) (UniProt O18874); experiment: serum ELISA, 1:1K, Alpaca 2 block
[8] = molecular target: T1, recombinant His-tagged Der p2; experiment: serum ELISA, 1:1K, Alpaca 2 block
[9] = molecular target: recombinant His-tagged Can f1 (dog (Canis familiaris)) (UniProt O18873); experiment: serum ELISA, 1:1K, Alpaca 2 block
[10] = molecular target: recombinant His-tagged Can f2 (dog (Canis familiaris)) (UniProt O18874); experiment: serum ELISA, 1:32k, Alpaca 1 block
[11] = molecular target: Can f2-sumo-His (dog (Canis familiaris)) (UniProt O18874); experiment: serum ELISA, 1:32k, Alpaca 1 block
[12] = molecular target: T1, recombinant His-tagged Der p2; experiment: serum ELISA, 1:32k, Alpaca 1 block
[13] = molecular target: recombinant His-tagged Can f1 (dog (Canis familiaris)) (UniProt O18873); experiment: serum ELISA, 1:32k, Alpaca 1 block
[14] = molecular target: recombinant His-tagged Can f2 (dog (Canis familiaris)) (UniProt O18874); experiment: serum ELISA, 1:16K, Alpaca 1 block
[15] = molecular target: Can f2-sumo-His (dog (Canis familiaris)) (UniProt O18874); experiment: serum ELISA, 1:16K, Alpaca 1 block
[16] = molecular target: T1, recombinant His-tagged Der p2; experiment: serum ELISA, 1:16K, Alpaca 1 block
[17] = molecular target: recombinant His-tagged Can f1 (dog (Canis familiaris)) (UniProt O18873); experiment: serum ELISA, 1:16K, Alpaca 1 block

Sequence of recombinant His-tagged Can f2 (dog (Canis familiaris)) (O18874 19-180 limits assumed): as the sequence (O18874 19-180) above

OD at 450 nm [1]: 0.064 OD and 0.069 OD | OD at 450 nm [2]: 0.057 OD and 0.058 OD | OD at 450 nm [3]: 0.085 OD and 0.081 OD | OD at 450 nm [4]: 0.103 OD | OD at 450 nm [5]: 0.077 OD and 0.075 OD | OD at 450 nm [6]: 0.227 OD and 0.241 OD | OD at 450 nm [7]: 0.186 OD and 0.181 OD | OD at 450 nm [8]: 0.201 OD and 0.19 OD | OD at 450 nm [9]: 0.228 OD and 0.218 OD | OD at 450 nm [10]: 0.069 OD and 0.062 OD | OD at 450 nm [11]: 0.056 OD and 0.057 OD | OD at 450 nm [12]: 0.099 OD and 0.081 OD | OD at 450 nm [13]: 0.102 OD and 0.107 OD | OD at 450 nm [14]: 0.075 OD and 0.076 OD | OD at 450 nm [15]: 0.071 OD | OD at 450 nm [16]: 0.099 OD and 0.093 OD | OD at 450 nm [17]: 0.101 OD and 0.11 OD
Substance: Negative serum taken from naïve alpacas
